US20250320480A1, “Immunoglobulin Cleaving Enzyme” (priority 2021, published 2025)
Entries after “also recorded” stand apart in the source; their conditions may differ.

Key:
[1] = system: casein; assay: General protease activity, EnzChek protease assay; format: biochemical; conditions: casein substrate, FabULOUS 5 μg, FabRICATOR 10 μg, IdeSORK2.0 10 μg
Protocol: FIG. 2. General protease activity. General protease activity was measured with the EnzCHECK protease assay, using casein as a substrate.
General protease activity was determined using the EnzChek Protease Assay kit, according to manufacturer's instructions. As a positive control the general protease FabULOUS (SpeB, 5 μg) was used, and as a negative control the IgG-specific protease FabRICATOR (IdeS, 10 μg). IdeSORK2.0 was added to a total quantity of 10 μg.

[2] = system: horse IgG; assay: Immunoglobulin specificity on SDS-PAGE: horse IgG; format: biochemical; conditions: o/n at 37° C.
Protocol: (§1) FIG. 11. Specificity of IdeSork2.0. IdeSork2.0 was mixed with different antibodies and incubated o/n at 37° C. before analysis on SDS-PAGE.
(§2) Various antibodies and antibody based therapeutics were incubated with Xork, IdeS, or IdeZ (1:40 ratio) for 1 hour at 37° C. in PBS, with substrate concentrations ranging between 2-5 mg/mL, before being analyzed on SDS-PAGE. For kinetic studies, a substrate level of 2-200 μM IVIG was used during 10 min at 37° C. before being analyzed on a UHPLC system.

[3] = system: pig IgG; assay: Immunoglobulin specificity on SDS-PAGE: pig IgG; format: biochemical; conditions: o/n at 37° C.
Protocol: as §1, §2

[4] = system: denatured and reduced IgG; assay: Activity on denatured and reduced IgG; format: biochemical; conditions: urea-denatured and reduced IgG, E:S 1:10, 5 hours at 37° C.
Protocol: FIG. 17. Denatured IgG was incubated with IgG hydrolases to investigate the necessity of a conserved 3D structure of the substrate for the enzymes to exert their function.
IgG that had been urea-denatured and reduced was incubated with IgG-specific enzymes at an E: S ratio of 1:10, incubating for 5 hours at 37° C. before analysis on SDS-PAGE.

[5] = system: human IgG1 hinge/CH2 region; assay: Site of hydrolysis by IdeSORK2.0, LC-MS; format: biochemical; conditions: IgG1, IgG2, fusion proteins, LALA-mutated IgG
Protocol: FIG. 5. IdeSork2.0 hydrolyses the hinge of IgG at an identical site as IdeS. Commercial and non-commercial biologics were hydrolyzed with IdeSork2.0 and hydrolysis products were analyzed using LC-MS.
Several substrates (IgG1, IgG2, fusion proteins, LALA-mutated IgG) were subjected to hydrolysis by IdeSORK2.0 and the site of hydrolysis identified through LC-MS. […] This is the same site that is recognized by IdeS. The site of hydrolysis has been confirmed for etanercept, trastuzumab, cetuximab, as well as two non-commercial monoclonal antibodies.
Subunit fragments were denatured and reduced followed by reversed phase LC-MS analysis. Separation was achieved using a BioResolve RP mAb Polyphenol, 450 Å, 2.7 μm 2.1×100 mm, Waters (0.1% formic acid in water and 0.1% formic acid in 95% acetonitrile as mobile phases) and run on an Agilent 1260/1290 UHPLC system coupled to a Bruker Impact II QTOF mass spectrometer. The obtained data was evaluated in Bruker Compass DataAnalysis software using the MaxEnt algorithm for deconvolution and SNAP algorithm for determination of the monoisotopic molecular weights.

[6] = system: Trastuzumab; assay: Mechanism of action: time course on Trastuzumab, non-reduced SDS-PAGE; format: biochemical, human; conditions: 1:20, 0-60 minutes
Protocol: FIG. 6. IdeSork2.0 is acting upon IgG in a two-step mechanism. To investigate if IdeSork2.0 is hydrolyzing both heavy chains of IgG simultaneously, or acting on them individually, we incubated Trastuzumab with IdeSork2.0 (1:20) and incubated for 0-60 minutes before analyzing on a non-reduced SDS-PAGE.
IdeS is known to first hydrolyze one chain of the antibody, and upon hydrolysis thereof, have lower affinity to the second chain. As such many antibodies may be only partly hydrolyzed at the start of the reaction. IdeSORK2.0 also generates fragments with single chain cleavage, however a large proportion of these are quickly processed to full cleavage (FIG. 6).

[7] = system: IgG; assay: Optimal conditions, Box-Behnken design (pH, NaCl, temperature); format: biochemical
Protocol: FIG. 7. IdeSork2.0 optimal conditions. The optimal buffer composition for IdeSork2.0 was determined using a Box-Behnken experimental design, measuring the impact of pH, NaCl and temperature. Output was measures as percentage hydrolysis of IgG.
The optimal conditions for IdeSORK2.0 were assessed using a Box-Behnken experimental design to assess multiple factors and their inter-dependence. […] The enzymatic reaction is mainly driven by the substrate concentration (high concentration favours the reaction), while the enzyme concentration is secondary. This can also be seen as a low percentage IgG not being readily hydrolyzed even after a pro-longed incubation (FIG. 9).
To better understand the optimal conditions needed for the enzyme to exert its activity, a Box-Behnken design was employed for the experiment. Addition of NaCl (0-400 mM), pH (5.5-8.5), [enzyme], [substrate], time, and temperature were parameters investigated. Unless otherwise noted, all experiments were conducted in TBS at an enzyme: substrate ratio of 1:20, for 1 hour at 37° C.

[8] = system: IgG2; assay: Comparison to other IgG proteases: IgG2; format: biochemical; conditions: SDS-PAGE
Protocol: FIG. 10. IdeSork2.0 is having a similar activity compared to IdeS and IdeZ. To investigate if IdeSork2.0 is hydrolyzing IgG in a similar way as IdeS and IdeZ they were all incubated against IgG1 and IgG2 and analyzed on SDS-PAGE. The cleavage patterns look identical, with both IdeSork2.0 and IdeS having less activity towards IgG2.
To further look into the activity of IdeSORK2.0, its activity was compared with IdeS and IdeZ against both IgG1 and IgG2.

[9] = system: IgG in human serum; assay: Activity of IgG hydrolases in human serum; format: biochemical; conditions: serum (100%), E:S 1:40, 0-4 hours at 37° C., non-reduced SDS-PAGE
Protocol: FIG. 15. Activity of IgG hydrolases in human serum. Serum (100%) was spiked with IgG hydrolases and activity was analyzed over time using non-reduced SDS-PAGE.
For serum activity assays, an E: S ratio of 1:40 (assuming 10 mg/mL IgG in serum) was used, incubating 0-4 hours at 37° C. before analysis on a non-reduced SDS-PAGE. All enzymes were supplied by Genovis AB.

B1: IdeSORK2.0: SEQ ID NO: 2 (N terminal 312 amino acids of IdeSORK) with added N terminal methionine and C-terminal His6; 319 amino acids (protein)
chain: MSKRKLLKKIEKKDTSSVLTQKKQTKTLWADGVQVDDKDFKPSTENFGTNYLAAEYGIGKGYYDINKKFDGTDDDLCSGVVAANQLHWWLDRNKDYIEKYRQQSKDNGVTIGNTDIFELNKLHDEDQSNFFDFIKKSFGNKFLQPERLLNMYINGYGYLTSQDKAKTSQPSPSKLNFFQKVFKNNLLTDKTPINDIDEFSSQTKNALQNHKVLAVSFASIKNRGLGHVVTVWGADFDENGKVVALYVTDSDDRSKNIGNAKLGMKKLRIEVSAQDSSTIKLTGFEDKNSGGSLRHLYSLSTGEQIWKKYFEETHHHHHH
modifications: (IdeSORK2.0) Protein of SEQ ID NO 2 engineered to include an additional N terminal methionine and a C-terminal protein purification tag - His6
- General protease activity (signal) [1]: no signs of general protease activity
- General protease activity (signal) ([1]; listed as IdeSork 2.0): did not give any measurable signal
- Activity on horse IgG [2]: showed activity
- Activity on pig (porcine) IgG [3]: only showed activity against horse and guinea pig IgG; also recorded: no visible effect
- Activity against denatured and reduced IgG [4]: not active
- Number and position of hydrolytic sites [5]: only a single hydrolytic site was detected
- Number and position of hydrolytic sites ([5]; listed as IdeSork2.0): only observed at a single site in the hinge region
- Mechanism of IgG heavy chain hydrolysis [6]: activity is mediated one chain at a time
- Time course of IgG hydrolysis [6]: Most IgG is hydrolyzed within the first few minutes
- Mechanism of IgG heavy chain hydrolysis ([6]; listed as IdeSork2.0): two-step reaction
- NaCl optimum [7]: 0 mM
- NaCl tolerated without a significant drop in activity [7]: up to 200 mM
- Requirement for co-factors or reducing agents [7]: no requirement for co-factors or reducing agents
- pH in which highly active [7]: 7.0-8.5
- pH optimum [7]: 7.5
- Effect of temperature on activity ([7]; 37° C. versus room temperature): improved when incubated at 37 °C as compared to room temperature
- NaCl range ([7]; >90% activity): 0 to 200 mM
- pH range ([7]; >90% activity): 6.5-8.5
- Hydrolysis of IgG2 [8]: able to hydrolyze
- Hydrolysis of IgG2 ([8]; listed as IdeSork2.0): less activity
- Immunoglobulin cleavage activity in the presence of human serum [9]: demonstrated immunoglobulin cleavage activity
